Assay results from article PMC7948397, “A novel soluble complement receptor 1 fragment with enhanced therapeutic potential” (The Journal of Biological Chemistry, 2020).

Experiments:
plasma-derived human C3b = biological target: T1, plasma-derived human C3b (human, UniProt P01024 23-667; P01024 749-1663); assay: SPR; His-tagged CSL040 or HuCR1(1971) captured on a Ni-NTA chip to 75-100 RU, C3b or C4b injected as analyte; Biacore T200, 37 °C; 10 mM Hepes, 150 mM NaCl, 0.1% bovine serum albumin, pH 7.3; 1:1 model with a term for mass transport; settings: both partners purified
T1 construct: human complement C3, beta chain; human complement C3b, alpha' chain (C3 alpha chain without C3a); source: bought: Complement Technology, plasma-derived

[1] = biological target: T2, CR1 (soluble analyte of the reverse SPR experiment; construct not named) (human, UniProt P17927 42-1971); assay: SPR; reverse format: C3b or C4b immobilised by amine coupling (230 RU, only 20% active), CR1 as analyte; apparent affinities; data not shown; settings: both partners purified
T2 construct: human complement receptor 1, soluble
T2 sequence (P17927 42-1971): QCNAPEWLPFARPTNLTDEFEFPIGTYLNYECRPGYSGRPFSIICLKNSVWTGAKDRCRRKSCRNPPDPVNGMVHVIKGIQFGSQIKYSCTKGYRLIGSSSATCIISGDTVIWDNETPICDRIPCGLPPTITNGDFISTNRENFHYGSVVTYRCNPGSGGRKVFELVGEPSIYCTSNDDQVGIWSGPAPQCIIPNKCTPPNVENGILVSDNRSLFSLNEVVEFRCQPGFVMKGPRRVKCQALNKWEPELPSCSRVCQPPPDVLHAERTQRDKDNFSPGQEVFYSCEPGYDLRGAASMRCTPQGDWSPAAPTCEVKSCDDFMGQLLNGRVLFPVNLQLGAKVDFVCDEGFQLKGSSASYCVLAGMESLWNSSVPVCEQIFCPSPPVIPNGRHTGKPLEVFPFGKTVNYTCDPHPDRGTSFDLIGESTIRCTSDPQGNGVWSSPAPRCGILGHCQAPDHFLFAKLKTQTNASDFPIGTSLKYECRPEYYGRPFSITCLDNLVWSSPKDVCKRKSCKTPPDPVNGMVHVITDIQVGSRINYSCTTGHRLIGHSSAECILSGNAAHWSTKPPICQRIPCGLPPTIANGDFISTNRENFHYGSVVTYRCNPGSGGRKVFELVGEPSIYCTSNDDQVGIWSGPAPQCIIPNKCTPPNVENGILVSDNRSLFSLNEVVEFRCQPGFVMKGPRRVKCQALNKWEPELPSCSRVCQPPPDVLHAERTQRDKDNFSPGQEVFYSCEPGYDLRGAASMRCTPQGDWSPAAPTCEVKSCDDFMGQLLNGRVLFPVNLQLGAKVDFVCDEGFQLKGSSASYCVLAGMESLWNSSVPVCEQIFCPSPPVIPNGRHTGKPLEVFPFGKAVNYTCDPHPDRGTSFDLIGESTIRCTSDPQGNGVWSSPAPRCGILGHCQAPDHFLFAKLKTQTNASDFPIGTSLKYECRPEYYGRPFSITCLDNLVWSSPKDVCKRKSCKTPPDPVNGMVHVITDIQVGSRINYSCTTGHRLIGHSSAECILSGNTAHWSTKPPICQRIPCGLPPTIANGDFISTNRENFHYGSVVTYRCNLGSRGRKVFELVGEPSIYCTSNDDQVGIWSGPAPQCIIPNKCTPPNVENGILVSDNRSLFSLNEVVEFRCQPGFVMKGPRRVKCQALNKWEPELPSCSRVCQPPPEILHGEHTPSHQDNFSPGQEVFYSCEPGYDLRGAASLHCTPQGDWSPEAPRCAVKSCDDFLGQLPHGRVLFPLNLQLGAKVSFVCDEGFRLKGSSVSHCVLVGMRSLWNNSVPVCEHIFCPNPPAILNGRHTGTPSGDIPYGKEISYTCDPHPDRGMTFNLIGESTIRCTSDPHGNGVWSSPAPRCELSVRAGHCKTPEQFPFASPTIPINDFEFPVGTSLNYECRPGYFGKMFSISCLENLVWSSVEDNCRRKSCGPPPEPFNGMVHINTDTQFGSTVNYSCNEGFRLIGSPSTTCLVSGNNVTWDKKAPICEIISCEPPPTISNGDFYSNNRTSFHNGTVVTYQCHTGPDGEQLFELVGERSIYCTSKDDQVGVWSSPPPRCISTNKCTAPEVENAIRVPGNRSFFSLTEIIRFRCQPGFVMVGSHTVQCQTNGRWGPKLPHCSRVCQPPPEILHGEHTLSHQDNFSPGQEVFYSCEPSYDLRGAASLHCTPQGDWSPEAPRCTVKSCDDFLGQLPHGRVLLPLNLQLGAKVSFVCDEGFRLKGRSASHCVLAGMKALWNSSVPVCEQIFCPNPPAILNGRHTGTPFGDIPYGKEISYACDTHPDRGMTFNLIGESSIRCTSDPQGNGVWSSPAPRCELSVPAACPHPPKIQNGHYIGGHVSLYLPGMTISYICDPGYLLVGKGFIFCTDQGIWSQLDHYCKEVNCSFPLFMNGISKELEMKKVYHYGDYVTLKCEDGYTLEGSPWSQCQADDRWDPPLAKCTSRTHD

T1 sequence (P01024 23-667, chain 1 of 2): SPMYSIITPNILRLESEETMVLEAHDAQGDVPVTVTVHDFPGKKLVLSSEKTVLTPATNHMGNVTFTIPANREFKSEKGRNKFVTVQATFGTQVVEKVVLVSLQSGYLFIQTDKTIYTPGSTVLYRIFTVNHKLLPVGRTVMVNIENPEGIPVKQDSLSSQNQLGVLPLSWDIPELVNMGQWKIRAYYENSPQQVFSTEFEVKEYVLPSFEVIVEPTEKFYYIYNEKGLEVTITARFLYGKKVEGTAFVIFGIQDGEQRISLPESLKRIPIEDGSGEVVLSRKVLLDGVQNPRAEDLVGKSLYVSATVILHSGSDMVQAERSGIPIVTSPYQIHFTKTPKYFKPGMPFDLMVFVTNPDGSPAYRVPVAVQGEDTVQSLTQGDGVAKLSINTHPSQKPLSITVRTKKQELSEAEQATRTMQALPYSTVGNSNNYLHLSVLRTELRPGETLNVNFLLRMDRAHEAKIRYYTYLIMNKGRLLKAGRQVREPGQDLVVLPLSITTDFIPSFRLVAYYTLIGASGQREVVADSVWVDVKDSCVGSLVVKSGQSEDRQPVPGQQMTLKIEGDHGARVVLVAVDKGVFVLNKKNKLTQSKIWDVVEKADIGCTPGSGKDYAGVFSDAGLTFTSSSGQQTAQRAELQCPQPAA
T1 sequence (P01024 749-1663, chain 2 of 2): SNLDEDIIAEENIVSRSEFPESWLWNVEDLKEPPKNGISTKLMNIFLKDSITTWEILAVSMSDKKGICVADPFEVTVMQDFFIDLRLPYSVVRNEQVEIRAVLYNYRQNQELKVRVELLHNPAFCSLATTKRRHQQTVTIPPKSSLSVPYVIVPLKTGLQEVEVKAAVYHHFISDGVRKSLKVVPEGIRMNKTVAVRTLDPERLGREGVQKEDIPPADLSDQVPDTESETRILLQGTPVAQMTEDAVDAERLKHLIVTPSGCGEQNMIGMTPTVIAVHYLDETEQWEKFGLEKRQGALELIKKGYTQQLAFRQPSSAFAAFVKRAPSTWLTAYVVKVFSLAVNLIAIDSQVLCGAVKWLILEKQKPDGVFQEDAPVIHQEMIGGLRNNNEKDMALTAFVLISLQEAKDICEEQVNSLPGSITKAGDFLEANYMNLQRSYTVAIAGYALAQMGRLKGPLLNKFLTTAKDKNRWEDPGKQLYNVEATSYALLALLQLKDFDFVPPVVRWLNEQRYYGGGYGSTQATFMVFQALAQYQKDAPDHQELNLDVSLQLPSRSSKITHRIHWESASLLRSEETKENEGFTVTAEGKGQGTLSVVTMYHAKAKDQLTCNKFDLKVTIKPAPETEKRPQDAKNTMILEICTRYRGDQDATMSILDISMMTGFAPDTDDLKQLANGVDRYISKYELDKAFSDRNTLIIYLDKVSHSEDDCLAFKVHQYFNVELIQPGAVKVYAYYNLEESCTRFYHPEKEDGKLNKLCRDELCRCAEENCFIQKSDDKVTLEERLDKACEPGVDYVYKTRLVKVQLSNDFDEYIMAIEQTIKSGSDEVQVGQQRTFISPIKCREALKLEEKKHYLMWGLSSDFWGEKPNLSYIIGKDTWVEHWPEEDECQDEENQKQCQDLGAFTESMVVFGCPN

B1: HuCR1(1392)/CSL040, soluble human complement receptor 1 truncated at amino acid 1392 (LHR-A, LHR-B and LHR-C) (receptor)
chain: not shown
notes: signal peptide in the construct; human complement receptor 1 (HuCR1, CD35), endogenous signal peptide, ends at amino acid 1392 (LHR-A, LHR-B, LHR-C; lacks LHR-D); amino acid numbering based on Met + 1; cDNA GenBank NP_000564, codon optimised; N-glycosylated, highly sialylated; A version without the His-tag was also made, but the SPR used the His-tagged protein; also called LHR-ABC; not shown: …
- Kd (plasma-derived human C3b): 265 nM
- koff (plasma-derived human C3b): 0.00654 s⁻¹
- kon (plasma-derived human C3b): 24800 M⁻¹ s⁻¹

B2: plasma-derived human C4b (ligand)
chain 1: KPRLLLFSPSVVHLGVPLSVGVQLQDVPRGQVVKGSVFLRNPSRNNVPCSPKVDFTLSSERDFALLSLQVPLKDAKSCGLHQLLRGPEVQLVAHSPWLKDSLSRTTNIQGINLLFSSRRGHLFLQTDQPIYNPGQRVRYRVFALDQKMRPSTDTITVMVENSHGLRVRKKEVYMPSSIFQDDFVIPDISEPGTWKISARFSDGLESNSSTQFEVKKYVLPNFEVKITPGKPYILTVPGHLDEMQLDIQARYIYGKPVQGVAYVRFGLLDEDGKKTFFRGLESQTKLVNGQSHISLSKAEFQDALEKLNMGITDLQGLRLYVAAAIIESPGGEMEEAELTSWYFVSSPFSLDLSKTKRHLVPGAPFLLQALVREMSGSPASGIPVKVSATVSSPGSVPEVQDIQQNTDGSGQVSIPIIIPQTISELQLSVSAGSPHPAIARLTVAAPPSGGPGFLSIERPDSRPPRVGDTLNLNLRAVGSGATFSHYYYMILSRGQIVFMNREPKRTLTSVSVFVDHHLAPSFYFVAFYYHGDHPVANSLRVDVQAGACEGKLELSVDGAKQYRNGESVKLHLETDSLALVALGALDTALYAAGSKSHKPLNMGKVFEAMNSYDLGCGPGGGDSALQVFQAAGLAFSDGDQWTLSRKRLSCPKEKTT
chain 2: ALEILQEEDLIDEDDIPVRSFFPENWLWRVETVDRFQILTLWLPDSLTTWEIHGLSLSKTKGLCVATPVQLRVFREFHLHLRLPMSVRRFEQLELRPVLYNYLDKNLTVSVHVSPVEGLCLAGGGGLAQQVLVPAGSARPVAFSVVPTAAAAVSLKVVARGSFEFPVGDAVSKVLQIEKEGAIHREELVYELNPLDHRGRTLEIPGNSDPNMIPDGDFNSYVRVTASDPLDTLGSEGALSPGGVASLLRLPRGCGEQTMIYLAPTLAASRYLDKTEQWSTLPPETKDHAVDLIQKGYMRIQQFRKADGSYAAWLSRDSSTWLTAFVLKVLSLAQEQVGGSPEKLQETSNWLLSQQQADGSFQDPCPVLDRSMQGGLVGNDETVALTAFVTIALHHGLAVFQDEGAEPLKQRVEASISKANSFLGEKASAGLLGAHAAAITAYALTLTKAPVDLLGVAHNNLMAMAQETGDNLYWGSVTGSQSNAVSPTPAPRNPSDPMPQAPALWIETTAYALLHLLLHEGKAEMADQASAWLTRQGSFQGGFRSTQDTVIALDALSAYWIASHTTEERGLNVTLSSTGRNGFKSHALQLNNRQIRGLEEELQFSLGSKINVKVGGNSKGTLKVLRTYNVLDMKNTTCQDLQIEVTVKGHVEYTMEANEDYEDYEYDELPAKDDPDAPLQPVTPLQLFEG
chain 3: EAPKVVEEQESRVHYTVCIWRNGKVGLSGMAIADVTLLSGFHALRADLEKLTSLSDRYVSHFETEGPHVLLYFDSVPTSRECVGFEAVQEVPVGLVQPASATLYDYYNPERRCSVFYGAPSKSRLLATLCSAEVCQCAEGKCPRQRRALERGLQDEDGYRMKFACYYPRVEYGFQVKVLREDSRAAFRLFETKITQVLHFTKDVKAAANQMRNFLVRASCRLRLEPGKEYLIMGLDGATYDLEGHPQYLLDSNSWIEEMPSERLCRSTRQRAACAQLNDFLQEYGTQGCQV
notes: human complement C4, beta chain; human complement C4b, alpha' chain (C4 alpha chain without C4a); human complement C4, gamma chain; Plasma-derived C4b is likely a mixture of C4A and C4B forms; source: bought: Complement Technology, plasma-derived; copies: + +
- Kd [1]: ~4900 nM
